± gives the standard deviation of the averaged measurements.

This series can be described thus: total protein half-life in vivo (active degradation + dilution); higher = more stable protein.
Setting [1] is: E. coli NCM3722 delta-clpP delta-lon delta-hslV, growth: N-lim chemostat, doubling time 6 h.
Setting [2] is: wild type E. coli NCM3722, growth: C-lim chemostat, doubling time 3 h.
Setting [3] is: wild type E. coli NCM3722, growth: C-lim chemostat, doubling time 6 h.
Setting [4] is: wild type E. coli NCM3722, growth: P-lim chemostat, doubling time 6 h.
Where [5] appears, read: wild type E. coli NCM3722, growth: P-lim chemostat, doubling time 12 h.
Setting [6] is: E. coli NCM3722 delta-clpP, growth: N-lim chemostat, doubling time 6 h.
Setting [7] is: E. coli NCM3722 delta-hslV, growth: N-lim chemostat, doubling time 6 h.
Setting [8] is: E. coli NCM3722 delta-lon, growth: N-lim chemostat, doubling time 6 h.
Where [9] appears, read: E. coli NCM3722 delta-smpB, growth: N-lim chemostat, doubling time 6 h.
Setting [10] is: wild type E. coli NCM3722, growth: C-lim chemostat, doubling time 12 h.
The mark [11] stands for this setting: wild type E. coli NCM3722, growth: N-lim chemostat, doubling time 6 h.
[12] abbreviates: wild type E. coli NCM3722, growth: N-lim chemostat, doubling time 12 h.

With “MNMEEIVALSVKHNVSDLHLCSAWPARWRIRGRMEAAPFDTPDVEELLREWLDDDQRAILLENGQLDFAVSLAENQRLRGSAFAQRHGISLALRLLPSHCPQLEQLGAPTVLPELLKSENGLILVTGATGSGKSTTLAAMVGYLNQHADAHILTLEDPVEYLYASQRCLIQQREIGLHCMTFASGLRAALREDPDVILLGELRDSETIRLALTAAETGHLVLATLHTRGAAQAVERLVDSFPAQEKDPVRNQLAGSLRAVLSQKLEVDKQEGRVALFELLINTPAVGNLIREGKTHQLPHVIQTGQQVGMITFQQSYQHRVGEGRL”, the “total protein half-life in vivo” value under setting [1] turned out to be 5.68 ± 0.4 h.
In the case of “MLQIIRGKLVIFLITLCLFVVYLGFDNNSNSDIVFYGHKTPKSVEIYLSEKNIIYKIINDQKISRGNGHFISIMVNNYRTHCGVVDINLNFFNDILYSVRLKNISKLENMEFCATKQRVYFSDKNKKASYKIINYGDYYDVDYYDNNLKNEVFDWIGKWS”, the “total protein half-life in vivo” value under setting [2] turned out to be 2.67 h, the “total protein half-life in vivo” value under setting [3] amounted to 4.29 h, the “total protein half-life in vivo” value under setting [4] came out at 2.67 h and the “total protein half-life in vivo” value under setting [5] stood at 7 h.
Consider “MKALTARQQEVFDLIRDHISQTGMPPTRAEIAQRLGFRSPNAAEEHLKALARKGVIEIVSGASRGIRLLQEEEEGLPLVGRVAAGEPLLAQQHIEGHYQVDPSLFKPNADFLLRVSGMSMKDIGIMDGDLLAVHKTQDVRNGQVVVARIDDEVTVKRLKKQGNKVELLPENSEFKPIVVDLRQQSFTIEGLAVGVIRNGDWL [P0A7C2]”, for which the “total protein half-life in vivo” value was found to be 3.01 ± 0.14 h under setting [1]; 2.31 ± 0.15 h under setting [6]; 3.18 ± 0.11 h under setting [7]; 3.9 ± 0.1 h under setting [8]; 3.03 ± 0.12 h under setting [9]; 1.91 ± 0.16 h under setting [2]. Also, the “total protein half-life in vivo” value is, setting by setting: under setting [3], 3.21 ± 0.11 h; under setting [10], 4.65 ± 0.17 h; under setting [11], 3.25 ± 0.28 h; under setting [12], 4.784 ± 0.043 h; under setting [4], 2.68 ± 0.22 h; under setting [5], 4.77 ± 0.42 h.
“MKMTKLATLFLTATLSLASGAALAADSGAQTNNGQANAAADAGQVAPDARENVAPNNVDNNGVNTGSGGTMLHSDGSSMNNDGMTKDEEHKNTMCKDGRCPDINKKVQTGDGINNDVDTKTDGTTQ [P0AAV6]”: the “total protein half-life in vivo” value under setting [1] stood at 4.05 h; the “total protein half-life in vivo” value under setting [6] was 4.92 ± 2.1 h; the “total protein half-life in vivo” value under setting [7] worked out at 5.44 ± 0.35 h; the “total protein half-life in vivo” value under setting [8] stood at 6.63 ± 0.59 h; the “total protein half-life in vivo” value under setting [9] came out at 3.73 ± 1.6 h; the “total protein half-life in vivo” value under setting [2] was found to be 1.7 h. Besides, the “total protein half-life in vivo” value by setting is: under setting [3], 5.24 h; under setting [10], 4.86 h; under setting [11], 4.78 h; under setting [12], 10.7 ± 3.5 h; under setting [4], 5.84 h; under setting [5], 10.2 ± 1.1 h.
On to “MSLLNVPAGKDLPEDIYVVIEIPANADPIKYEIDKESGALFVDRFMSTAMFYPCNYGYINHTLSLDGDPVDVLVPTPYPLQPGSVIRCRPVGVLKMTDEAGEDAKLVAVPHSKLSKEYDHIKDVNDLPELLKAQIAHFFEHYKDLEKGKWVKVEGWENAEAAKAEIVASFERAKNK [P0A7A9]”, for which the “total protein half-life in vivo” value under setting [1] was 5.91 ± 0.78 h; the “total protein half-life in vivo” value under setting [6] was 4.83 ± 0.22 h; the “total protein half-life in vivo” value under setting [7] stood at 5.09 ± 0.49 h; the “total protein half-life in vivo” value under setting [8] came to 6.36 ± 0.52 h; the “total protein half-life in vivo” value under setting [9] is 5.358 ± 0.02 h; the “total protein half-life in vivo” value under setting [2] was 3.48 ± 0.71 h. In addition, the “total protein half-life in vivo” value reads like this: under setting [3], 5.73 ± 0.47 h; under setting [10], 10.6 ± 0.65 h; under setting [11], 4.34 ± 0.4 h; under setting [12], 8.63 ± 0.47 h; under setting [4], 5.65 ± 1.4 h; under setting [5], 14.4 ± 1.1 h.
As to “MIKQTIVALLLSVGASSVFAAGTVKVFSNGSSEAKTLTGAEHLIDLVGQPRLANSWWPGAVISEELATAAALRQQQALLTRLAEQGADSSADDAAAINALRQQIQALKVTGRQKINLDPDIVRVAERGNPPLQGNYTLWVGPPPSTVTLFGLISRPGKQPFTPGRDVASYLSDQSLLSGADRSYAWVVYPDGRTQKAPVAYWNKRHVEPMPGSIIYVGLADSVWSETPDALNADILQTLTQRIPQ”, the “total protein half-life in vivo” value reads like this: under setting [1], 7.07 h; under setting [6], 6.22 h; under setting [8], 7.193 ± 0.064 h; under setting [9], 5.1 ± 0.077 h.
For the sequence “MTLFTTLLVLIFERLFKLGEHWQLDHRLEAFFRRVKHFSLGRTLGMTIIAMGVTFLLLRALQGVLFNVPTLLVWLLIGLLCIGAGKVRLHYHAYLTAASRNDSHARATMAGELTMIHGVPAGCDEREYLRELQNALLWINFRFYLAPLFWLIVGGTWGPVTLMGYAFLRAWQYWLARYQTPHHRLQSGIDAVLHVLDWVPVRLAGVVYALIGHGEKALPAWFASLGDFHTSQYQVLTRLAQFSLAREPHVDKVETPKAAVSMAKKTSFVVVVVIALLTIYGALV [P0AE14]”, the “total protein half-life in vivo” value runs as follows: under setting [1], 6.33 ± 0.16 h; under setting [6], 6.29 h; under setting [8], 5.3 ± 0.39 h; under setting [9], 6.02 ± 0.49 h; under setting [2], 3.246 ± 0.031 h; under setting [3], 5.626 ± 0.0074 h. The “total protein half-life in vivo” value reads like this: under setting [10], 13.1 ± 3.9 h; under setting [11], 6.63 ± 0.9 h; under setting [12], 14 ± 2.6 h.
Consider “MTAIAPVITIDGPSGAGKGTLCKAMAEALQWHLLDSGAIYRVLALAALHHHVDVASEDALVPLASHLDVRFVSTNGNLEVILEGEDVSGEIRTQEVANAASQVAAFPRVREALLRRQRAFRELPGLIADGRDMGTVVFPDAPVKIFLDASSEERAHRRMLQLQEKGFSVNFERLLAEIKERDDRDRNRAVAPLVPAADALVLDSTTLSIEQVIEKALQYARQKLALA [P0A6I0]”, for which the “total protein half-life in vivo” value was 4.56 ± 0.24 h under setting [1]; 4.93 ± 0.48 h under setting [6]; 4.14 ± 0.16 h under setting [7]; 4.79 ± 0.34 h under setting [8]; 3.86 ± 0.083 h under setting [9]; 3.05 ± 0.14 h under setting [2]. For the same sequence, the “total protein half-life in vivo” value under setting [3] came out at 5.44 ± 0.4 h; the “total protein half-life in vivo” value under setting [10] amounted to 9.23 ± 1.1 h; the “total protein half-life in vivo” value under setting [11] was determined as 4.15 ± 0.046 h; the “total protein half-life in vivo” value under setting [12] was determined as 6.34 ± 1.1 h; the “total protein half-life in vivo” value under setting [4] came to 4.71 ± 0.26 h; the “total protein half-life in vivo” value under setting [5] turned out to be 9.34 ± 0.78 h.
On to “MKSKVLALLIPALLAAGAAHAAEVYNKDGNKLDLYGKVDGLHYFSDNSAKDGDQSYARLGFKGETQINDQLTGYGQWEYNIQANNTESSKNQSWTRLAFAGLKFADYGSFDYGRNYGVMYDIEGWTDMLPEFGGDSYTNADNFMTGRANGVATYRNTDFFGLVNGLNFAVQYQGNNEGASNGQEGTNNGRDVRHENGDGWGLSTTYDLGMGFSAGAAYTSSDRTNDQVNHTAAGGDKADAWTAGLKYDANNIYLATMYSETRNMTPFGDSDYAVANKTQNFEVTAQYQFDFGLRPAVSFLMSKGRDLHAAGGADNPAGVDDKDLVKYADIGATYYFNKNMSTYVDYKINLLDEDDSFYAANGISTDDIVALGLVYQF”, for which the “total protein half-life in vivo” value was determined as 3.6 h under setting [2], 6.9 h under setting [3] and 11.9 h under setting [10].

For the origin of these results see the supplement of paper PMC11246515.
